These results are taken from US20070243589A1 (Pfizer, published 2007).

In test [1] the target is T1, human IL-22 (human, UniProt Q9GZX6 34-179).
T1 sequence: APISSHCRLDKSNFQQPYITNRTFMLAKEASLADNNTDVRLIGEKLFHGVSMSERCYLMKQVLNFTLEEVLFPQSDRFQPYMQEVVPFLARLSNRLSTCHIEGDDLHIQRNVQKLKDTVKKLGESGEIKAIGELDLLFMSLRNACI
As to the kind of experiment: cell-based or functional assay.

In test [2] the target is T1, human IL-22. As to the kind of experiment: cell-based or functional assay. The source holds these as a separate data set.
In test [3] the target is T2, BSA (bovine, UniProt P02769).
T2 construct: background wells labelled BSA; also called bovine serum albumin
T2 sequence (P02769 25-607 limits assumed): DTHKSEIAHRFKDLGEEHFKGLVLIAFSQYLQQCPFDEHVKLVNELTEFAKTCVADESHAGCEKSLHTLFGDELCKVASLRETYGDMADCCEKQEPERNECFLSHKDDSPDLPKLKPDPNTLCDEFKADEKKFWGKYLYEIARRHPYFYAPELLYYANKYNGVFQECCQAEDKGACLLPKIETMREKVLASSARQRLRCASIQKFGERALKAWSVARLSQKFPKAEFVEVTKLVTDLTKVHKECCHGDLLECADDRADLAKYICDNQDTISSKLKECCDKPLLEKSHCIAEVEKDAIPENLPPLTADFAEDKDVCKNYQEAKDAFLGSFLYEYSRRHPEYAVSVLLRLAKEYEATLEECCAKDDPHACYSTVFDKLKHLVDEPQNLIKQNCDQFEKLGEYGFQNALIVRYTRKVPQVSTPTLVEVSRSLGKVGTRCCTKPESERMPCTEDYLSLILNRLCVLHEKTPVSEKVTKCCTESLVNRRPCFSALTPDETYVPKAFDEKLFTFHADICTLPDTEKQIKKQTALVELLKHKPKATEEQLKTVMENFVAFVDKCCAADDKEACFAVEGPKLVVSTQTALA
As to the kind of experiment: ELISA: wells labelled BSA, IgG at 1 µg/ml, HRP anti-human IgG, A450. As for the experimental part: (§1) Cross species reactivity of germlined and non-germlined optimized antibodies were determined as follows: ELISA plates (Costar, Cat. #3590) were coated overnight with 1 μg/ml of rat, mouse, or human IL-22 or human IL-26 in PBS buffer. Plates were washed with PBST buffer (0.05% Tween20 in PBS) 3 times, then blocked with 1% BSA (Sigma A8918)/PBST for 1 hr at RT. Antibodies were added at 1 μg/ml, incubated 1 hr at 25° C. […] The plates were incubated for 1 hour at 25° C., then washed with PBST, and developed with TMB (KPL, Cat. #50-76-04). Reaction was stopped with 0.18 M H₂S0₄. Plates were read at OD 450 nm.

Test [4] has as its target T3, IL-26 (human, UniProt Q9NPH9).
T3 construct: coated on the ELISA plate at 1 µg/ml; also called human IL-26
T3 sequence (cytokine, looked up): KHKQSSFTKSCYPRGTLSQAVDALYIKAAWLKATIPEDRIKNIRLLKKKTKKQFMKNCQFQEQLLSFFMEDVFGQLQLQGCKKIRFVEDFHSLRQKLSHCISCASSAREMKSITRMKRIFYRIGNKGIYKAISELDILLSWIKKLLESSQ
As to the kind of experiment: ELISA: plate coated with 1 µg/ml human IL-26, IgG at 1 µg/ml, HRP anti-human IgG, A450. The protocol:
as §1

Test [5] addresses T4, biotinylated IL-22 with an N-terminal His/FLAG tag (bio.IL-22H/F) (human, UniProt Q9GZX6 34-179, biotinylated (site not stated)).
T4 construct: not shown: N-terminal His/FLAG tag
T4 sequence: T1 sequence
As to the kind of experiment: IL-22 receptor complex inhibition assay (bio.IL-22H/F binding to IL-22 receptor complex, DELFIA), IgG. As for the experimental part:
Potency of purified IgG was verified in the biochemical IL-22 receptor complex inhibition assay as described below. IgG concentrations were titrated in order to obtain potency values.
(§2) Microtiter plates were coated with an IL-22 receptor complex antibody (1 μg/ml in PBS), and incubated for 1.5 hours at room temperature. Plates were washed three times in PBST, and blocked for 1 hour at room temperature with 2% MPBS. After a further 3 washes, diluted cell conditioned medium containing an IL-22 receptor complex was added and incubated overnight at 4° C. Crude scFv supernatants were prepared as described above. The following day, 25 μl of diluted scFv sample and 25 μl of bio.IL-22H/F (6 ng/ml) were added to the washed plates, and incubated for 1.5 hours at room temperature. Plates were washed 3 times in PBST, then binding of bio.IL-22H/F to the IL-22 receptor complex was detected with Europium-Streptavidin and the DELFIA® reagent kit (PerkinElmer). Time Resolved Fluorescence was measured using a Victor 2™ Plate Reader (Perkin Elmer).

For test [6], the target named is T4, biotinylated IL-22 with an N-terminal …. As to the kind of experiment: IL-22 receptor complex inhibition assay (bio.IL-22H/F binding to IL-22 receptor complex, DELFIA), scFv. As for the experimental part:
Both the IL-22/IL-22R binding assay (described above) and the IL-22/IL-22 receptor complex assay (described below) were used. ScFv concentrations were titrated in order to establish the clone potencies as measured by assay IC₅₀ values. These were determined using GraphPad Prism software and four-parameter logistic equation curve fitting.
as §2

Substitutions are numbered along the chain they refer to.

B1: 166B06 IgG (non-germlined) (antibody, V domains shown)
VH: EVQLVQSGAEVKKPGASVKVSCQASGYTFSDYYIHWVRQTPGQGFEWMGWVNPDTGGTRYAQKFQGWVTMTRDMSNTTAYMELPRLRDDDTAVYYCARDLTGFDPFDIWGQGTLVTVSS
VL: QSVLTQPPSVSVAPGKTATITCGGNNFRNKRVHWYQQRPGQAPVLVIYYDSDRPSGIPERFSGSRSGNTATLTISRVEAGDEADFYCQVWDLFNDNGVFGGGTKLTVLG
As to B1, the “IC50 (pM) of non-germlined IgG in BaF3-IL-22R proliferation assay” value (“IC50 (pM) of non-germlined IgG” below) in test [1] was 109 pM. In addition, in test [2], the “IC50 of IgG in BaF3-IL-22 proliferation assay” value (“IC50 of IgG” below) was 0.071 nM.

B2: 166B06 germlined IgG (antibody, V domains shown)
VH: B1 VH with E1Q, Q23K, T40A, F45L, W67R, N76I, T77S, P84S, D88S
VL: B1 VL with Q1S, T19R, R38K, F85Y
With B2, the “IC50 (pM) of germlined IgG in BaF3-IL-22R proliferation assay” value (“IC50 (pM) of germlined IgG” below) in test [1] worked out at 169 pM. For the same molecule, the binding result in test [3] and in test [4] was “no binding (tested: 1 µg/ml (single concentration))” throughout.

B3: 376B10 IgG (non-germlined) (antibody, V domains shown)
VH: B1 VH with R85G, F103Y, P105Q, F106Y, D107T, I108A
VL: B1 VL with Q88S, V89T, W90F, L92P, N94T, N96R, G97P, V98L
notes: IgG
On to B3, for which the binding result in test [3] and in test [4] was “no binding (tested: 1 µg/ml (single concentration))” in each case. In addition, the “IC50 of IgG” value in test [2] amounted to 0.119 nM.

B4: 166G05 IgG (non-germlined) (antibody, V domains shown)
VH: B1 VH
VL: B1 VL with L92F, F93L, N94T, N96S, V98S
Consider B4, for which the “IC50 (pM) of non-germlined IgG” value in test [1] is 366 pM. Further, the “IC50 of IgG” value in test [2] is 0.097 nM.

B5: GIL68 IgG (non-germlined parent) (antibody, V domains shown)
VH: B1 VH
VL: B1 VL with L92S, F93S, N94T, N96R, G97P, V98L
notes: Human IgG4 heavy chain constant domain; Cryptate labeled in the HTRF assay; also called cryptate labeled GIL68 IgG
The term IC50 denotes the point on the concentration scale where inhibition reaches its midpoint. A low value points to greater potency. Turning to B5, the IC50 in test [5] was determined as 2 nM. In other words, the single-digit nanomolar range.

B6: 375G06 IgG (non-germlined) (antibody, V domains shown)
VH: B1 VH with F103Y, P105Y, F106Y, I108R
VL: QSVLTQPPSMSVAPGKTATITCGGNNFRNKRVHWYQQRPGQAPVLVIYYDSDRPSGIPERFSGSRSGNTATLTISRVEAGDEADFYCQVWDFLADEAMFGGGTKLTVL
notes: IgG
B6: the binding result in test [3] and in test [4] was “no binding (tested: 1 µg/ml (single concentration))” each time. For the same molecule, the “IC50 of IgG” value in test [2] was 0.1 nM.

B7: 166G05 germlined IgG (antibody, V domains shown)
VH: B1 VH with E1Q, Q23K, T40A, F45L, W67R, N76I, T77S, P84S, D88S
VL: B1 VL with Q1S, T19R, R38K, F85Y, L92F, F93L, N94T, N96S, V98S
For B7, the “IC50 (pM) of germlined IgG” value in test [1] is 109 pM. Besides, the binding result in test [3] and in test [4] was “no binding (tested: 1 µg/ml (single concentration))” each time.

B8: 062A09 IgG (non-germlined) (antibody, V domains shown)
VH: QVQLVESGAEVKKPGASVKVSCKASGYTFTSYGISWVRQAPGQGLEWMGWVSAYTGNTNYAQKFQGRVTMTTDTSTSTAYMELRGLRSDDTAVYYCARDRGYYDAFDIWGQGTLVTVSS
VL: DIQMTQSPSTLSASIGDRVTITCRASEGIYHWLAWYQQKPGKAPKLLIYKASSLASGAPSRFSGSGFGTDFTLTISSLQPDDFATYYCQQMGEYNATIGGGTKLEIKR
Regarding B8, in test [1], the “IC50 (pM) of non-germlined IgG” value was 108 pM. For the same molecule, the “IC50 of IgG” value in test [2] came out at 0.083 nM.

B9: 062A09 (antibody, V domains shown)
VH: B8 VH with E6Q, G85S
VL: B8 VL with I15V, A58V, F67S, D70E, I98F, L104V
notes: The list MOLECULES holds only the non-germlined 062A09 IgG; also called 062A09 germlined IgG
Take B9: the binding result in test [3] and in test [4] was “no binding (tested: 1 µg/ml (single concentration))” each time.

B10: 354A08 germlined IgG (antibody, V domains shown)
VH: QVQLVQSGAEVKKPGASVKVSCKASGYTFTDYYMHWVRQAPGQGLEWVGWINPYTGGAFYAQKFRGRVTMTRDTSISTAYMELSRLRSDDTAVYYCAREPERFGDSTGQVWGRGTLVTVSS
VL: QAVLTQPPSVSGAPGQRVTISCTGSSSNIGAGYGVHWYQQLPGTAPKLLIYGNSNRPSGVPDRFSGSKSGTSASLAITGLQAEDEADYYCYHWDKEQSGYVFGGGTQLTVLG
As to B10, the “IC50 (pM) of germlined IgG” value in test [1] came out at 79 pM. Moreover, the binding result in test [3] and in test [4] was “no binding (tested: 1 µg/ml (single concentration))” throughout. The “IC50 of IgG” value in test [2] is 0.079 nM.

B11: 356A11 germlined IgG (antibody, V domains shown)
VH: B10 VH with D31N, G57S, R102K, G104D, D105S, S106D, T107D, G108S, Q109D
VL: B10 VL with N53D, Y91Q, H92S, W93Y, K95N, E96S, Q97L
For the molecule B11, the “IC50 (pM) of germlined IgG” value in test [1] was found to be 53 pM. In addition, the binding result in test [3] and in test [4] was “no binding (tested: 1 µg/ml (single concentration))” throughout. Besides, the “IC50 of IgG” value in test [2] came to 0.053 nM.

B12: 367D04 IgG (non-germlined) (antibody, V domains shown)
VH: EVQLVESGGGVVRPGGSLRLSCAASGFTFDDYGMNWVRQAPGKGLEWVSGVNWNGGTRDYAASVKGRFTISRDNAKNSLYLQMNSLRAEDTALYYCARGWYSGSPWSLGHWGRGTLVTVSS
VL: QAVLTQPSSVSGSPGQSVTISCTGASGDVGAYNFVSWYQQHPGKTPKLIIYDVNKRPSGVSNRFSGSKSGNTASLTISRLQAEDESDYYCSSYTSRYTTEFGGGTKVTVLG
notes: IgG
For the molecule B12, the binding result in test [3] and in test [4] was “no binding (tested: 1 µg/ml (single concentration))” throughout. The “IC50 of IgG” value in test [2] is 0.126 nM.

B13: 087B03 germlined IgG (antibody, V domains shown)
VH: B12 VH with Y95H, S104A, P105A, S107N, L108M, H110Y
VL: QAALTQPASVSGSPGQSITISCTGASGDVGAYNFVSWYQQHPGKAPKLIIYDVNKRPSGVSNRFSGSKSGNTASLTISGLQAEDEADYYCSSYTSTFSVVFGGGTKLTVLG
On to B13, for which the “IC50 (pM) of germlined IgG” value in test [1] is 118 pM. Besides, the binding result in test [3] and in test [4] was “no binding (tested: 1 µg/ml (single concentration))” in each case.

B14: GIL45 scFv (non-germlined parent) (scFv)
scFv: QMQLVQSGGGVVQPGRSLRLSCAASGFTFSNYGMYWVRQAPGKGLEWVAHIWYDGSNEKYADSVKGRMTVSRDNSRNTLYLQMNSLRAEDTAVYYCATEQHWITAFDIWGKGTLVTVSSGGGGSGAGGSGGGGSQSVLTQPASVSGSPGQSITISCTGTSSDVGGYNYVSWYQQHPGKAPKLMIYEGSKRPSGVSNRFSGSKSGNTASLTISGLQAEDEADYYCSSYTTRSTRVFGGGTKLTVLGAAAH
In test [6], B14 yielded an IC50 of 358 nM.
